72 sequences from the supplement of paper PMC10567573 can be followed below.

The data set is described as follows: protein stability index of a GFP-peptide fusion (GPS, HEK-293T) (PSI 1-6); higher = more stable.
Where [1] appears, read: treatment: DMSO, c terminus: a fixed tail appended.
The mark [2] stands for this setting: treatment: MLN4924 1 uM, 8 h, c terminus: a fixed tail appended.
The mark [3] stands for this setting: treatment: DMSO, c terminus: native.
The mark [4] stands for this setting: treatment: MLN4924 1 uM, 8 h, c terminus: native.

± gives the standard deviation.
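Also: 24-mer peptide tiles fused after GFP, lentivirally expressed, FACS-sorted into six equal bins by GFP/DsRed ratio, decoded by Illumina sequencing, PSI is the read-weighted mean bin number.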

Regarding RVLQNLLTIEERYLPQCSYFKCVQ [CCND2], the protein stability index under setting [1] is 3.08 ± 0.22 and the protein stability index under setting [2] amounted to 2.69 ± 0.57.

With LEQEEERLSKEWEDSKRWSKMDQL [CHGA], the protein stability index by setting is: under setting [1], 4.81 ± 0.24; under setting [2], 4.73 ± 0.17.

For MGPDEYEEMEEEEEEEEEEDEDDD [FBXO3], the protein stability index was found to be 5.42 ± 0.22 under setting [1] and 5.47 ± 0.14 under setting [2].

The sequence QQHSDKTSLQGLTGTPLVAGSPIR [ISL2] gave a protein stability index under setting [1] of 4.2 ± 0.21 and a protein stability index under setting [2] of 4.39 ± 0.13.

For the sequence LVVALDVDATLEHVQDPQNTVKVQ [INTS4], the protein stability index by setting is: under setting [1], 3.03 ± 0.14; under setting [2], 3.21 ± 0.2.

VPRTEAPAPASSTPQEPWPGPTAP [PDLIM7] had a protein stability index under setting [1] of 4.98 ± 0.22 and a protein stability index under setting [2] of 5.2 ± 0.27.

In the case of PCSKAVMSQALKATFSGFKKEQRR [ETS2], the protein stability index runs as follows: under setting [1], 3.15 ± 0.21; under setting [2], 3.27 ± 0.28.

GVCQSMCHDKYTKIFNDFKDRMKS [ZMYND11]: the protein stability index is 3.11 ± 0.032 under setting [1] and 2.92 ± 0.23 under setting [2].

PSAILRTPESTKPGPVCQPPVSQS [ANKRD40]: the protein stability index was determined as 4.59 ± 0.23 under setting [1] and 4.45 ± 0.18 under setting [2].

Consider IPPYSRASLKGYQWLKDKILSEEG [KCNAB2], for which the protein stability index runs as follows: under setting [1], 2.64 ± 0.45; under setting [2], 3.02 ± 0.54.

Regarding KCLQGNADGDGGGGQCCRRQDSPS [PCDHGC5], the protein stability index is 5.25 ± 0.29 under setting [1] and 5.21 ± 0.1 under setting [2].

Turning to PEGSVSGSQPNSGLALESSSGLQD [NFE2L1], the protein stability index was 5.46 ± 0.2 under setting [1] and 5.51 ± 0.13 under setting [2].

In the case of AEHNLVLFRKDVDDATLSRLELER [PRPH], the protein stability index under setting [1] is 4.45 ± 0.19 and the protein stability index under setting [2] amounted to 4.51 ± 0.16.

For YTVSATAPGYDPETVTVTVGPAEP [CPN1], the protein stability index came out at 3.61 ± 0.13 under setting [1] and 3.83 ± 0.39 under setting [2].

In the case of TPGDCPPGRRDEDAGEGIQCSQRM [TMEM175], the protein stability index was found to be 5.15 ± 0.37 under setting [1] and 5.25 ± 0.18 under setting [2].

As for YFEGAPFPHPLWLRDTYKLWVPQP [PWWP2B], the protein stability index by setting is: under setting [1], 2.05 ± 0.24; under setting [2], 2.18 ± 0.3.

Take REIMEKFGKQPVSLPARRLKLRGR [CPXM2]: the protein stability index by setting is: under setting [1], 3.64 ± 0.16; under setting [2], 3.65 ± 0.088.

For the sequence ELLREGRASATTTITTAAATSVTV [ZBTB22], the protein stability index came to 3.42 ± 0.21 under setting [1] and 3.48 ± 0.28 under setting [2].

Turning to FELALQLAEMKDDSDSEKQQQIHH [VPS39], the protein stability index was found to be 4.76 ± 0.17 under setting [1] and 4.8 ± 0.12 under setting [2].

As to SRVNNASYCPHCGEESSKAKEVTI [EHMT1], the protein stability index turned out to be 3.39 ± 0.14 under setting [1] and 3.37 ± 0.32 under setting [2].

Take RGPDNALLEATGGAAGRSHHLDED [KCTD10]: the protein stability index reads like this: under setting [1], 5.54 ± 0.26; under setting [2], 5.42 ± 0.25.

NEHSAHCPHTPEFSVTGGTEEKSS [RPAIN]: the protein stability index is 5.44 ± 0.24 under setting [1] and 5.28 ± 0.15 under setting [2].

Regarding YDAYRTDLEELSLGPRDAGTRGRL [ARFIP2], the protein stability index is 4.1 ± 0.29 under setting [1] and 4.35 ± 0.15 under setting [2].

Take HLLEAEPLSPIQASSVHLKSESSL: the protein stability index is, setting by setting: under setting [1], 4.16 ± 0.1; under setting [2], 4.14 ± 0.15.

For the sequence GGLGGGYGGGLGGGFGGGFAGGFV [KRT13], the protein stability index under setting [1] came to 2.16 ± 0.25 and the protein stability index under setting [2] turned out to be 2.1 ± 0.82.

Sequence ERSVVTRDIRCSEDEKLCDPNTRP [ADAMTSL2] yielded a protein stability index under setting [1] of 5.06 ± 0.31 and a protein stability index under setting [2] of 5.41 ± 0.27.

On to IGVILFSSAVYFAEADEPTTHFQS [KCNA4], for which the protein stability index reads like this: under setting [1], 2.36 ± 0.58; under setting [2], 2.69 ± 1.

As for AREGAGLVVASGVIYCLGGYDGLN [KLHL12], the protein stability index runs as follows: under setting [1], 2.81 ± 0.59; under setting [2], 2.39 ± 0.51.

LNVFQTVSRMRTQRAFSIQTPEQY [PTPN9]: the protein stability index reads like this: under setting [1], 2.38 ± 0.33; under setting [2], 2.54 ± 0.31.

As to AHRGRLNIQAGINENDFYDGAWCA [CPXM2], the protein stability index is 3.34 ± 0.86 under setting [1] and 3.29 ± 0.46 under setting [2].

As to IRLCDMRASALCDRHTKFFEEPED [PPP2R2B], the protein stability index is, setting by setting: under setting [1], 3.59 ± 0.11; under setting [2], 3.77 ± 0.2.

On to PPPLDQYVKFDAVSGDYYPIIYFN [CLPTM1], for which the protein stability index is, setting by setting: under setting [1], 2.32 ± 0.14; under setting [2], 2.37 ± 0.44.

Consider HGQENIVRILLRRGVDVSLQGKDA [RIPK4], for which the protein stability index came out at 2.5 ± 0.087 under setting [1] and 3.13 ± 0.24 under setting [2].

Turning to CHSCQLYLPSTEFSVSSTSRRIYR [IQUB], the protein stability index was 2.45 ± 0.15 under setting [1] and 2.73 ± 0.54 under setting [2].

FSSDKAKAGSSEWLAVDGLVSPSN [ATF4] returned a protein stability index under setting [1] of 3.8 ± 0.26 and a protein stability index under setting [2] of 4.08 ± 0.32.

Take RGLVGVGEASYSTIAPTLIADLFV [SPNS1]: the protein stability index runs as follows: under setting [1], 2.29 ± 0.62; under setting [2], 2.13 ± 0.26.

Regarding DDRKLAALLKFHTLDSYEDKQKLK [YJU2B], the protein stability index was found to be 3.97 ± 0.28 under setting [1] and 4.12 ± 0.27 under setting [2].

Take SEEYQQAQHKFLVAVESMEPNNIV [TCF25]: the protein stability index under setting [1] turned out to be 4.26 ± 0.22 and the protein stability index under setting [2] was 4.29 ± 0.15.

Consider PYLRFGCLSCRLFYFKLTDLYKKV [CRY1], for which the protein stability index is, setting by setting: under setting [1], 2.55 ± 0.45; under setting [2], 2.32 ± 0.38.

Regarding EPDLRHLVLVVNTLRRIQASMAPA [SERTAD1], the protein stability index under setting [1] came to 2.66 ± 0.11 and the protein stability index under setting [2] stood at 2.51 ± 0.14.

Turning to PLLKLACTNTYVTGLSMIANGGAI [OR4A15], the protein stability index by setting is: under setting [1], 2.15 ± 0.58; under setting [2], 2.21 ± 0.72.

The sequence DHSFSLELGSEVDITEGDRKPDYT [ATF4] gave a protein stability index under setting [1] of 5.2 ± 0.29 and a protein stability index under setting [2] of 5.34 ± 0.18.

As for QLELVILQSEPHRAGVQWKFAGSF [KCNK9], the protein stability index is, setting by setting: under setting [1], 2.7 ± 0.54; under setting [2], 2.59 ± 0.44.

Take DYRGPDCRYLNFTKGEEISVYVKL [MIA2]: the protein stability index under setting [1] worked out at 2.45 ± 0.53 and the protein stability index under setting [2] came to 2.81 ± 0.95.

Sequence SELEDLTEPEQRELKTKLTKLEAE [TPD52L3] yielded a protein stability index under setting [1] of 5.31 ± 0.45 and a protein stability index under setting [2] of 5.6 ± 0.15.

EARSYLSEEMIAEFKAAFDMFDAD [TNNC2]: the protein stability index under setting [1] worked out at 4.16 ± 0.46 and the protein stability index under setting [2] was 4.15 ± 0.23.

In turn, RVQQHIESKLLGSNSSRMYFTQTL [MLH1] had a protein stability index under setting [1] of 2.37 ± 0.23 and a protein stability index under setting [2] of 2.29 ± 0.38.

Turning to TAFLLNIQLFEELQELLTHDTKDQ [HMOX1], the protein stability index came out at 2.32 ± 0.28 under setting [1] and 2.49 ± 0.44 under setting [2].

With RGWLLTSGTDKVIKLWDMTPVVS [WDFY2], the protein stability index is 2.01 ± 0.2 under setting [3] and 2.26 ± 0.24 under setting [4].

Take AVNQKIDRESLCGASTSCLLPVQV [PCDHGC5]: the protein stability index stood at 2.99 ± 0.13 under setting [1] and 3.26 ± 0.65 under setting [2].

Take RQIQEEEDEKQRLQNEVRQLTEKL [SSNA1]: the protein stability index under setting [1] is 4.98 ± 0.19 and the protein stability index under setting [2] was 5.04 ± 0.21.

Take ENSVTHHEVKCQGKPLAGIYRKRE [KMT5A]: the protein stability index runs as follows: under setting [1], 4.34 ± 0.13; under setting [2], 4.42 ± 0.34.

Consider KLLKSMPILQGQIDALLEFDVHPN [SNAP91], for which the protein stability index runs as follows: under setting [1], 2.12 ± 0.21; under setting [2], 2.33 ± 0.17.

EEAPELDEAELDYLMDVLVGTQAL [SERTAD1] gave a protein stability index under setting [1] of 4.05 ± 0.25 and a protein stability index under setting [2] of 4.22 ± 0.16.

On to YKKGIIRKPDISQRLVYQFVHPI [SPDEF], for which the protein stability index turned out to be 2.43 ± 0.48 under setting [3] and 2.63 ± 0.4 under setting [4].

Turning to YPDAEDPQLGLDGPGEPDVRDGFS [PSD2], the protein stability index was found to be 5.51 ± 0.31 under setting [1] and 5.46 ± 0.084 under setting [2].

For the sequence TAGQERYRAITSAYYRGAVGALLV [RAB11A], the protein stability index stood at 2.22 ± 0.24 under setting [1] and 2.19 ± 0.24 under setting [2].

As to ISDRYSPELRQLVLSLLSLEPAQR [NEK8], the protein stability index is, setting by setting: under setting [1], 2.66 ± 0.38; under setting [2], 2.3 ± 0.39.

As for NRLMLAVRDMMANFHLNDLEAPHE [TCF25], the protein stability index reads like this: under setting [1], 2.5 ± 0.42; under setting [2], 2.42 ± 0.24.

As for IVSQKQIADRAAHDESPGNNVVDI [RAB11B], the protein stability index reads like this: under setting [1], 5.16 ± 0.12; under setting [2], 5.12 ± 0.1.

KKVYLTGFALDILFAIANGFSPSY [SLC22A15] showed a protein stability index under setting [1] of 2.68 ± 0.28 and a protein stability index under setting [2] of 3.42 ± 0.22.

Take MGVVSLVFLIIYYLDPSVLSGVSC [ARL6IP1]: the protein stability index runs as follows: under setting [1], 3.18 ± 0.51; under setting [2], 3.13 ± 0.33.

LVKHKRIHSREKRGDSVKVENPST [ZNF649]: the protein stability index came out at 4.41 ± 0.32 under setting [1] and 4.54 ± 0.48 under setting [2].

LVGDDAACIAYIRLTQYMDGSGMP [CAMK2D]: the protein stability index is, setting by setting: under setting [1], 2.13 ± 0.91; under setting [2], 1.66 ± 0.13.

For PLSSDIQVITQTGVPGQPLNFKAE [PTPRD], the protein stability index by setting is: under setting [1], 4.66 ± 0.17; under setting [2], 4.51 ± 0.26.

On to RRTYLGGAAGRSQEPEVPCAAVLP [RSPH3], for which the protein stability index was determined as 4.37 ± 0.092 under setting [1] and 4.37 ± 0.18 under setting [2].

Take CGPIAGSRQALSFEVPPCNYDPEK: the protein stability index under setting [1] turned out to be 4.24 ± 0.23 and the protein stability index under setting [2] is 4.13 ± 0.46.

With QGEYSRKLEERFMTLAANHELMLR [CCDC89], the protein stability index reads like this: under setting [1], 3.15 ± 0.18; under setting [2], 3.18 ± 0.25.

Regarding ILQLEECCTHNNSATLSWKQPPLS [TRIM9], the protein stability index by setting is: under setting [1], 2.67 ± 0.42; under setting [2], 2.78 ± 0.23.

For the sequence ITALLNVSRRTSEACMTHLHYKWI [DUSP5], the protein stability index worked out at 2.75 ± 0.53 under setting [1] and 2.54 ± 0.32 under setting [2].

As for AVIYLGYCFCGWIVLGPYHVKFRS [MCOLN1], the protein stability index runs as follows: under setting [1], 3.08 ± 1.1; under setting [2], 2.86 ± 0.52.

The sequence VEVDENAYRCGSGMQMAEDSKSLK [NET1] came in with a protein stability index under setting [1] of 4.98 ± 0.26 and a protein stability index under setting [2] of 4.99 ± 0.31.
